The record followed here is paper PMC3942423 (Nature chemical biology, 2009).

As usually defined, the Km is the concentration of substrate that gives half-maximal velocity. The kcat is the number of substrate molecules converted per active site and unit of time at saturation. Usually kcat/Km stands for the turnover number divided by the Michaelis constant.

Substrate in data set [1]: O=[N+]([O-])c1ccc(O[C@H]2O[C@H](CO)[C@@H](O)[C@H](O)[C@@H]2O)cc1
The experiment in a line: 4NP-Man hydrolysis kinetics. The data set is classed as biochemical, Bacteroides thetaiotaomicron. Particulars: other: substrate 4NP-Man.

Substrate in data set [2]: OC[C@H]1O[C@H](O[C@H]2[C@@H](O)[C@H](O)[C@@H](CO)O[C@@H]2O)[C@@H](O)[C@@H](O)[C@@H]1O
The data set can be described thus: mannobiose hydrolysis kinetics. It counts as biochemical, Bacteroides thetaiotaomicron. Particulars: other: most active mannobiose substrate.

Substrate in data set [3]: OC[C@H]1O[C@H](O[C@@H]2[C@H](O)[C@@H](O)O[C@H](CO)[C@H]2O)[C@@H](O)[C@@H](O)[C@@H]1O
The experiment in a line: purified protein, by the assay type. The following applies: other: most active mannobiose substrate, pH 7.0, 37.0 °C.

B1: Bt3990 (Bacteroides thetaiotaomicron VPI-5482) (protein)
chain: KDWTQYVNPLMGSQSTFELSTGNTYPAIARPWGMNFWTPQTGKMGDGWQYTYTANKIRGFKQTHQPSPWINDYGQFSIMPIVGQPVFDEEKRASWFAHKGEVATPYYYKVYLAEHDIVTEMTPTERAVLFRFTFPENDHSYVVVDAFDKGSYIKIIPEENKIIGYTTRNSGGVPENFKNYFIIEFDKPFTYKATVENGNLQENVAEQTTDHAGAIIGFKTRKGEQVNARIASSFISFEQAAANMNELGKDNIEQLAQKGKDAWNQVLGKIEVEGGNLDQYRTFYSCLYRSLLFPRKFYELDANGQPIHYSPYNGQVLPGYMFTDTGFWDTFRCLFPLLNLMYPSVNKEMQEGLINTYLESGFFPEWASPGHRGCMVGNNSASILVDAYMKGVKVDDIKTLYEGLIHGTENVHPEVSSTGRLGYEYYNKLGYVPYDVKINENAARTLEYAYDDWCIYRLAKELKRPKKEISLFAKRAMNYKNLFDKESKLMRGRNEDGTFQSPFSPLKWGDAFTEGNSWHYTWSVFHDPQGLIDLMGGKEMFVTMMDSVFAVPPIFDDSYYGQVIHEIREMTVMNMGNYAHGNQPIQHMIYLYDYAGQPWKAQYWLRQVMDRMYTPGPDGYCGDEDNGQTSAWYVFSALGFYPVCPGTDEYVMGTPLFKKATLHFENGNSLVIDAPNNSTENFYIDSMSFNGADHTKNYLRHEDLFKGGTIKVDMSNRPNLNRGTKEEDMPYSFSKE
Consider B1, for which, in data set [1] (enzyme Bt3990, pH 7.0), the Km is 4200 ± 420 µM, the kcat came to 0.0933 ± 0.00467 s⁻¹ and the kcat/Km stood at 21.7 M⁻¹ s⁻¹. Besides, in data set [2] (enzyme Bt3990, pH 7.0), the Michaelis constant (Km) is 760 ± 110 µM, the kcat turned out to be 86.7 ± 5 s⁻¹ and the kcat/Km stood at 113000 M⁻¹ s⁻¹.

B2: Bt3773 (Bacteroides thetaiotaomicron VPI-5482) (protein)
chain: KQDYSKSEGLLQYVDPYIGSGFHGHVFVGTSVPYGMVQLGPNNIHKGWDWCSGYHYSDSILIGFSHTHLSGTGCTDLGDILIMPLNEIRTPRGNQDDIRDGYASKYSHDNEIARPEYYSLILDRYNIKAELTATDRVGFHRYTYPEGKPVSILIDLREGNGSNAYDSYIRKVDDYTVEGYRYVRGWSPSRKVYFVLKSDQKIEKFTAYDDNTPKLWDQLKVESVKSVLTFGNVKEVKIKVAISSVSCDNAAMNLQAELSHWDFDKVVKMSSDRWNKQLDKMTVESDDEAAKRVFYTAHYHTMIAPTLYCDVNGEYRGMNDMIYTDPKKANYTTLSLWDTYRALNPLMTIIQPEMVDNVINSMLSIYRQQDKLPIWPLMSGETNCMPGYSSVPVIADAYLKGFTGFDAEEALTAMKATATYEGQNGVPYVMAKGYIPADKIHEATSIAMEYAVDDWGIAAMAQKMGKTADYETFSKRAHYYKNYFDSSIHFIRPKLEDGSWRTPYDPARSIHGVGDFCEGNGWQYTFFAPQDPYGLISLFGGDKPFTSKLDSFFTNNDSMGEGASSDITGLIGQYAHGNEPSHHIAYLYTYAGEQWKTAEKVRFIMSDFYTDQPDGIIGNEDCGQMSAWYLLSAMGFYQVNPSDGVFAFGSPRFKKIEVKVRGGKVFTVEAPNNSKDNIYIQKVYLNGKPYHKSYITYDDIINGSTLKFEMGKKPAKNFGKASANRPIVLNK
In the case of B2, in data set [3] (enzyme Bt3773), the Michaelis-Menten constant (Km) is 2500 ± 370 µM, the kcat amounted to 0.0183 s⁻¹ and the kcat/Km came out at 7.5 M⁻¹ s⁻¹.

B3: Bt2199 (Bacteroides thetaiotaomicron VPI-5482) (protein)
chain: MVTRLFFLSICFPFLLTSCQQSKKTVEFVDYVNPLMGTESTFAFSHGNTYPAVAVPWGMNFWSPQTGENGSGWMYTYTDSLMRGFRQTHQPSPWINDYGTFSIMPLAGELKMSHKERLVPFSHQQEKATPYNYSVTFNNGLQTSLSATSRGAVFEVSFPEKEDQYVVVDAYNGGSSITIEPEKRLVKGATRYNNGGVPDNFANYFMMEFSHPVIEYGTYNGDTLLHHQTDVAADYTCAYLKFDVPAGEKLTIRTASSFISPEQAAINFNREVADADVQLISGKAREQWNNYLGRVEAEGGTDEQLRTFYSCLYRTLLFPREFYEFDSQGNPVYYSPYDGNVHDGYMYTDNGFWDTFRAVHPLFTLLYPEVSERVTQSIINAYNESGFMPEWASPGHRGCMIGNNSVSLLVDAWMKGIQTVDAEKALEAMIHQTQARHAEIASVGRDGFEYYDKLGYVPYPEVPEATAKTLEYAYADWCIARFAESLGKQDIADQYYQKAPNYRNLYYPEHGFMWTKDAKGNWRDRFDATEWGGPFTEGSSWHWTWSVFHDPEGLSELMGGHEPMIARLDSMFVAPNTYNYGTYGFVIHEIAEMVALNMGQYAHGNQPVQHAIYLYDYIGQPWKTQYHLRNVMDKLYNSGSKGYCGDEDNGQTSAWYVFSAMGFYPVCPGMPEYAIGSPLFKKVTLHLPEGKNFVVSAADNAADRPYIRKALLNGQEFTRNYLTHDELKQGGELNLSMDSVPNQQRGTQPADFPYSYSK
For B3, in data set [1] (enzyme Bt2199, pH 7.0), the kcat is 0.105 ± 0.00483 s⁻¹ and the kcat/Km came to 14 M⁻¹ s⁻¹. In data set [2] (enzyme Bt2199, pH 7.0), the turnover number (kcat) came out at 40 ± 2.33 s⁻¹ and the kcat/Km was 60000 M⁻¹ s⁻¹.

B4: Bt1769 (Bacteroides thetaiotaomicron VPI-5482) (protein)
chain: CNGSLQTADRTPVDYVNPYIGNISHLLVPTFPTIQLPNSMLRVYPERADYTSELLKGLPLIVTNHRERSAFNFSPYQGEKLRPVITYNYDNEHITPYSFDVELDDNRMKAEYALSHQSAIYRITYEADKPAYLIVNSRNGSIHANENFISGRQQLNDNTNVYVYIEAQEKPISAGILENGTIETSKDNAEGANACAAWRFADGTTTVNLRYGISFISEEQAEKNLHRELKDYNIKALAEAGRQIWNETLGRIQVEGGTEDDKTVFYSSFYRTFERPICMSEGGRYFSAFDGKVHEDNGTPFYTDDWIWDTYRAAHPLRTLIDQQKEEDIIASYLRMAEQMGNMWMPTFPEVTGDTRRMNSNHAVATVADALAKGLKVDTAKAYEACRKGIEEKTLAPWSGAPAGWLDNFYRENGYIPALRVDEPENDPNVHPFEKRQPVAVTLGTSYDQWCLSRIAQALNKKEEAEYYLKCSYNYRNLYNKETAFFHPKDKEGQWIEPFDYRFPGGMGAREYYGENNGWVYRWDVPHNVADLISLMGGNEQFIANLDRTFTEPLGRSKYAFYAKLPDHTGNVGQFSMANEPSLHVPYLYNYAGQPWKTQKRIRQMLKTWFRNDLMGIPGDEDGGGMTSFVVFSSLGFYPVTPGLPAYTIGSPLFTDAKIRLSNGAVFEIEAKNASTDNKYIQSATLNGKEWNKSWFSHDDLMSGGKLVLVMGNKPNKTWASGAEDVPPSLEIK
Regarding B4, in data set [3] (enzyme Bt1769), the Km is 1300 ± 140 µM, the kcat turned out to be 63.3 s⁻¹ and the kcat/Km was determined as 48300 M⁻¹ s⁻¹.

B5: Bt3962 (Bacteroides thetaiotaomicron VPI-5482) (protein)
chain: QKQPVDYVNPLMGTDSKISLSNGNTYPAIALPWGMNFWMPQTGKMGDGWAYTYASDKIRGFKQTHQPSPWINDYGQFSIMPMTKQLKIDQDSRASWFSHKAEKATPYYYSVYLSEYNMTTEIAPTERCAYFRFTFPEASDAYVVVDAFDRGSYVKVIPEENKIVGYTTRNSGGVPQNFRNYFVIEFDKPFTFNKVWADYHLVETHLELQSNHVGAAIGFSTKKGEQVHAKVASSFISPEQAELNLKEIGNKTFEQTKEAGRKAWNDVLGRIKVEDDDENRMRTFYSCLYRSVLFPRMFHEVNAKGETVHYSPYNGEIRPGYMFTDTGFWDTFRCLFPFVNLIYPSMGEKMQEGLLNTYLESGFFPEWASPGHRGCMVGNNSASVVADAFMKNVTKADAEKMYEGLLKGANSVHPRVSTTGRRGYEYYNKLGYVPYDVKINENAARTLEYAYDDWCIYRMGEKLGRPAEELELYKSRSQNYRNLFDPETKLMRGKNADGTFQTPFNPFKWGDAFTEGNSWHYTWSVFHDVQGLADLMGGRKMFVSMLDSVFNLPPIFDDSYYGGVIHEIREMEIANMGNYAHGNQPIQHMIYLYNYAGEPWKAQYWLREVMNRLYFATPDGYCGDEDNGQTSAWYVFTALGFYPVCPGSNEYVMGAPYFKKATITLENGKKLEISAPKNSDANRYIRSLNYNGKNYTKNYLNHFDLLKGGRLVFDMDNKPNKGRGINESDFPYSFSRDNK
As for B5, in data set [1] (enzyme Bt3962, pH 7.0), the Km is 5000 ± 840 µM, the kcat is 0.283 ± 0.0267 s⁻¹ and the specificity constant (kcat/Km) was 56.7 M⁻¹ s⁻¹. Further, in data set [2] (enzyme Bt3962, pH 7.0), the Km was 430 ± 52 µM, the kcat turned out to be 13.7 s⁻¹ and the kcat/Km came to 31700 M⁻¹ s⁻¹.
